Measurements reported in publication PMC12603737, “Transmembrane domain interactions underlie NSG1 regulation of sortilin ectodomain shedding” (The Journal of Biological Chemistry, 2025).

How the values were obtained:
sortilin A773W [1] = molecular target: T1, sortilin A773W (human, UniProt Q99523 78-831, A773W); assay: cell-based or functional assay
T1 sequence (looked up): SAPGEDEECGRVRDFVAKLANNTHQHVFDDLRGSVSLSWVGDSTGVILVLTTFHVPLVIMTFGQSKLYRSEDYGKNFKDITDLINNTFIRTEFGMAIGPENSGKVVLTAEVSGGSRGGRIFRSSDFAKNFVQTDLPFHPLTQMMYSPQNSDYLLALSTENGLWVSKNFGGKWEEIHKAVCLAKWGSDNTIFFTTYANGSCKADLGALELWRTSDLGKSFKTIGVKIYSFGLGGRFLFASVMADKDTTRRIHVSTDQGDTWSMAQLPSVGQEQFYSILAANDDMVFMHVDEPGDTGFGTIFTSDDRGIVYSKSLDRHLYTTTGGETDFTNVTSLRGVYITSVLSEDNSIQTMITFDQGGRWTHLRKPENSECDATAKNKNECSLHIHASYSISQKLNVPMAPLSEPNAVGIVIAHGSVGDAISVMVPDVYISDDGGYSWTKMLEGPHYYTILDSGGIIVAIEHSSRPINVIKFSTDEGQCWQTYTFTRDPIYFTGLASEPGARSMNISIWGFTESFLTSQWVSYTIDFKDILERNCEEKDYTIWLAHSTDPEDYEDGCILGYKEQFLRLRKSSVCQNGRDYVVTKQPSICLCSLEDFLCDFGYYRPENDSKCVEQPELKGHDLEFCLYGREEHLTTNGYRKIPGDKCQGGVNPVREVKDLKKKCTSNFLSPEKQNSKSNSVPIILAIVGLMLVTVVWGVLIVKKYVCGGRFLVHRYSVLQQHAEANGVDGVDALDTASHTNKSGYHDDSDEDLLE

sortilin T770W [2] = molecular target: T2, sortilin T770W (human, UniProt Q99523 78-831, T770W); assay: cell-based or functional assay
T2 sequence (looked up): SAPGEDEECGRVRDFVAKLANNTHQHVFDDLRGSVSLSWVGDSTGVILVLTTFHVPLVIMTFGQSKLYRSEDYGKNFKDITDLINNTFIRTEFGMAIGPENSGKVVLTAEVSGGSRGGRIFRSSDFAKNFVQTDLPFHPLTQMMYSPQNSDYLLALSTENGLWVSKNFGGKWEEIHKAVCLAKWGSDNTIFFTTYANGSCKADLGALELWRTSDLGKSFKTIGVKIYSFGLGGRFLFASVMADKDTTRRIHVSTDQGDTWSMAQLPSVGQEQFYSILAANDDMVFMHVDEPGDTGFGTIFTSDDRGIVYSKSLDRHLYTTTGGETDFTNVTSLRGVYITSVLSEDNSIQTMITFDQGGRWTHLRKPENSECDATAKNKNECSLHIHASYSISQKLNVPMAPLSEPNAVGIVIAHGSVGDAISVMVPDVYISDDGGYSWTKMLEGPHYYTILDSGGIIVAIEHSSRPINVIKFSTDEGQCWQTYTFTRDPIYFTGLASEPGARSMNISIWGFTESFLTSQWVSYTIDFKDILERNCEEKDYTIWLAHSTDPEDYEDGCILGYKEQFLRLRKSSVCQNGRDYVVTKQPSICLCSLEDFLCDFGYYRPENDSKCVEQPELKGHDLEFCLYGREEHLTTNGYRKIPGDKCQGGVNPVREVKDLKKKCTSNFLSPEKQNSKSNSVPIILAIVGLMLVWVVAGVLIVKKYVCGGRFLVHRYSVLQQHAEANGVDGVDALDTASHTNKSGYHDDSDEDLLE

sortilin A773W [3] = molecular target: T1, sortilin A773W; assay: co-IP; HEK293MSR cells overexpressing sortilin WT or TMD mutants along with NSG1; lysis in 5 mM CHAPS buffer; IP with rabbit anti-sortilin (control rabbit IgG), protein A-agarose, 4 °C; NSG1 normalized to precipitated sortilin, percent of WT; five independent experiments; settings: partners not purified
sortilin Y781K = molecular target: T3, sortilin Y781K (human, UniProt Q99523 78-831, Y781K); assay: as above; settings: partners not purified
T3 construct: signal peptide in the construct; propeptide too; Full-length human SORT1 with a mutation at the cytoplasmic border of the TMD; source: HEK293MSR, transfected, in lysate (5 mM CHAPS)
T3 sequence (looked up): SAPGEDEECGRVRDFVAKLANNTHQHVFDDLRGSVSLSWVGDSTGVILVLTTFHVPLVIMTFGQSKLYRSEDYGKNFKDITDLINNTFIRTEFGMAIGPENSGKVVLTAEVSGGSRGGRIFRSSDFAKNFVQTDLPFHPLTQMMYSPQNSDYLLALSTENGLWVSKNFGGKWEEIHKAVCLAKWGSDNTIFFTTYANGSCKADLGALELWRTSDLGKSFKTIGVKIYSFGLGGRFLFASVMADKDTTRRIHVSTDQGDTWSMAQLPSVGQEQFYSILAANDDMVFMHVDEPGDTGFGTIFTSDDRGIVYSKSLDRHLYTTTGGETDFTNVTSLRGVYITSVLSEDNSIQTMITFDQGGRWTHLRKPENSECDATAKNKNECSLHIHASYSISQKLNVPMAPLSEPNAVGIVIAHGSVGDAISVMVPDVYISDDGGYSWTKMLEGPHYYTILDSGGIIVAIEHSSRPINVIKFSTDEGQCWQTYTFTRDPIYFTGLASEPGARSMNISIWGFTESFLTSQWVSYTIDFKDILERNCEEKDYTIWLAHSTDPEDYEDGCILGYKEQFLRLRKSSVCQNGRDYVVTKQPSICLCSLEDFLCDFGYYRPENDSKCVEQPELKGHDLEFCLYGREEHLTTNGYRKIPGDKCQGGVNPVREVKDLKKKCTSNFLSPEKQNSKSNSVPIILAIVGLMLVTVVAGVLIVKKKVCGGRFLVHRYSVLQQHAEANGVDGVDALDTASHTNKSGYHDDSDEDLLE

sortilin T770W [4] = molecular target: T2, sortilin T770W; assay: as above; settings: partners not purified

- sortilin ectodomain accumulated in conditioned media of HEK293MSR cells cotransfected with NSG1 (Western blot), percent of WT sortilin (sortilin A773W [1]): 46 % of WT sortilin
- sortilin ectodomain accumulated in conditioned media of HEK293MSR cells cotransfected with NSG1 (Western blot), percent of WT sortilin (sortilin T770W [2]): 40 % of WT sortilin
- NSG1 coimmunoprecipitated, normalized to immunoprecipitated sortilin, percent of WT sortilin (sortilin A773W [3]): 129%
- NSG1 coimmunoprecipitated, normalized to immunoprecipitated sortilin, percent of WT sortilin (sortilin Y781K): 130%
- NSG1 coimmunoprecipitated, normalized to immunoprecipitated sortilin, percent of WT sortilin (sortilin T770W [4]): 146%
B1: neuron-specific gene 1 (NSG1) (natural protein, human, UniProt P42857 1-185, looked up)
chain: MVKLGNNFAEKGTKQPLLEDGFDTIPLMTPLDVNQLQFPPPDKVVVKTKTEYEPDRKKGKARPPQIAEFTVSITEGVTERFKVSVLVLFALAFLTCVVFLVVYKVYKYDRACPDGFVLKNTQCIPEGLESYYAEQDSSAREKFYTVINHYNLAKQSITRSVSPWMSVLSEEKLSEQETEAAEKSA
notes: Human NSG1, subcloned from the pPR3 yeast two-hybrid library vector into pcDNA3; UniProt P42857 is printed for the modelling; no tag is named, detection with an anti-NSG1 antibody; source: HEK293MSR, transiently transfected, in lysate (5 mM CHAPS)
